Data published in patent US20240093191A1, “COMPOSITIONS AND METHODS FOR TREATING DISEASE ASSOCIATED WITH DUX4 OVEREXPRESSION” (RESEARCH INSTITUTE AT NATIONWIDE CHILDREN'S HOSPITAL, priority 2021, published 2024).

B1: U6.mir-675-2.1: mir-675 construct with modified 5' and 3' flanking sequences (nucleic acid)
DNA: TCTAGAGATCCGACGCCGCCATCTCTAGGCCCGCGCCGGCCCCCTCGCACAGACTTGTGGGAGAAGCTCGGCTACTCCCCTGCCCCGGTTAATTTGCATATAATATTTCCTAGTAACTATAGAGGCTTAATGTGCGATAAAAGACAGATAATCTGTTCTTTTTAATACTAGCTACATTTTACATGATAGGCTTGGATTTCTATAAGAGATACAAATACTAAATTATTATTTTAAAAAACAGCACAAAAGGAAACTCACCCTAACTGTAAAGTAATTGTGTGTTTTGAGACTATAAATATCCCTTGGAGAAAAGCCTTGTTTGCCCCAGGGTCTGGTGCGGAGAGGGCCCACAGTGGACTTGGTGACGCTGTATGCCCTCACCGCTCAGCCCCTGGGGTAACTCCTAATCACACTTTTTT
B2: U6.mir-675-2.5: mir-675 construct with modified 5' and 3' flanking sequences (nucleic acid)
DNA: TCTAGAGATCCGACGCCGCCATCTCTAGGCCCGCGCCGGCCCCCTCGCACAGACTTGTGGGAGAAGCTCGGCTACTCCCCTGCCCCGGTTAATTTGCATATAATATTTCCTAGTAACTATAGAGGCTTAATGTGCGATAAAAGACAGATAATCTGTTCTTTTTAATACTAGCTACATTTTACATGATAGGCTTGGATTTCTATAAGAGATACAAATACTAAATTATTATTTTAAAAAACAGCACAAAAGGAAACTCACCCTAACTGTAAAGTAATTGTGTGTTTTGAGACTATAAATATCCCTTGGAGAAAAGCCTTGTTAACGCGAATCACACTGCCCCAGGGTCTGGTGCGGAGAGGGCCCACAGTGGACTTGGTGACGCTGTATGCCCTCACCGCTCAGCCCCTGGGGATACTCCTAATCACACTTTTTT
B3: U6.mir-675F: U6 mir-675 construct with flanking sequences similar to H1.mir-675 (nucleic acid)
DNA: GACGCCGCCATCTCTAGGCCCGCGCCGGCCCCCTCGCACAGACTTGTGGGAGAAGCTCGGCTACTCCCCTGCCCCGGTTAATTTGCATATAATATTTCCTAGTAACTATAGAGGCTTAATGTGCGATAAAAGACAGATAATCTGTTCTTTTTAATACTAGCTACATTTTACATGATAGGCTTGGATTTCTATAAGAGATACAAATACTAAATTATTATTTTAAAAAACAGCACAAAAGGAAACTCACCCTAACTGTAAAGTAATTGTGTGTTTTGAGACTATAAATATCCCTTGGAGAAAAGCCTTGTTTGCCCCAGGGTCTGGTGCGGAGAGGGCCCACAGTGGACTTGGTGACGCTGTATGCCCTCACCGCTCAGCCCCTGGGGAATTCTTCGATTCTGCTTTTTT
B4: U6.mir-675-2.3: mir-675 construct with modified 5' and 3' flanking sequences (nucleic acid)
DNA: TCTAGAGATCCGACGCCGCCATCTCTAGGCCCGCGCCGGCCCCCTCGCACAGACTTGTGGGAGAAGCTCGGCTACTCCCCTGCCCCGGTTAATTTGCATATAATATTTCCTAGTAACTATAGAGGCTTAATGTGCGATAAAAGACAGATAATCTGTTCTTTTTAATACTAGCTACATTTTACATGATAGGCTTGGATTTCTATAAGAGATACAAATACTAAATTATTATTTTAAAAAACAGCACAAAAGGAAACTCACCCTAACTGTAAAGTAATTGTGTGTTTTGAGACTATAAATATCCCTTGGAGAAAAGCCTTGTTTGAATCACACTGCCCCAGGGTCTGGTGCGGAGAGGGCCCACAGTGGACTTGGTGACGCTGTATGCCCTCACCGCTCAGCCCCTGGGGATACTCCTAATCACACTTTTTT

Tests used:
Format in all cases: cell-based, human
[1] = tested on: mir-675-5p; assay: ddPCR of all mature mir-675-5p sequences (TaqMan Advanced miRNA cDNA synthesis) in HEK293 cells
Protocol: Digital Droplet PCR (ddPCR). For mir-675 and mi405 constructs, RNA extraction was carried out as described for QPCR above. For cDNA synthesis, the TaqMan advanced cDNA synthesis kit (Thermo Fisher) was used and cDNA was prepared by following manufacturer's instructions. ddPCR was carried out using 1× ddPCR Supermix for probes (No dUTP) (Bio-Rad), 1× commercially available mir-675 advanced TaqMan probe, or a custom made mi405 advanced TaqMan probe (ThermoFisher) and 50 ng of cDNA. For DUX4 cDNA synthesis, the High-Capacity cDNA Reverse Transcription Kit (Applied Biosystems) was used according to manufacturer's instructions. Within the same cDNA reaction, 1×RT random hexamer primers and 25 pmoles of the Oligo(dT) primer were used to generate cDNA for DUX4 and DUX4-responsive biomarkers and for mouse Rpl13A, used as a reference gene. To quantify DUX4, the ddPCR reaction mixture (20 μL) contained 1× ddPCR Evagreen Supermix (Bio-Rad), 1 μM of forward and reverse DUX4 primers (Sharma et al., J Genet Syndr Gene Ther 2016 August; 7(4):303. doi: 10.4172/2157-7412.1000303. Epub 2016 Aug. 8), and 50 ng of cDNA. To quantify Rpl13A and DUX4-responsive biomarkers (Trim36 and Wfdc3), the 1× ddPCR Supermix for probes (No dUTP) and TaqMan specific probes were used for each of the genes. Droplets were generated using the Automatic Droplet generator QX200 AutoDG (Bio-Rad), the reactions were amplified in a C1000 Touch™ Thermal Cycler with 96-Deep Well Reaction Module (Bio-Rad). Cycling conditions were set up following the QX200 ddPCR Evagreen Supermix protocol. All assays are compatible with an annealing temperature of 58° C. Droplets were then read using the QX200 droplet reader (Bio-Rad). Finally, data were analyzed using the QuantaSoft analysis software (Bio-Rad). For quantification, each reaction of 20 μL was estimated to give at least 10,000 acceptable droplets.
In order to quantify the level of all these mature sequences, the TaqMan advanced miRNA cDNA synthesis method that uses universal reverse transcription (RT) chemistry to synthesize cDNA templates that can be quantified using the TaqMan Advanced miRNA probes was used. In this method, most of the processed mature miRNA sequences were quantified.

[2] = tested on: mir-675-5p; assay: Small-transcript northern blot of mir-675 processing in HEK293 cells; settings: HEK293; anti-mir-675-5p biotinylated probe
Excerpt: Small-Transcript Northern Blots. […] (SEQ ID NO: 148)).

[3] = tested on: DUX4 protein; assay: Western blot of V5-tagged DUX4 protein in co-transfected HEK293 cells; settings: CMV.DUX4-FL/CMV.eGFP; HEK293; molar ratio 1 to 3; eGFP normalizer; relative to U6-milacZ; N = 3-8
Protocol: Western Blots. […] 50 mM Tris (pH 7.5-8.0), 150 mM NaCl, 0.1% (v/v) SDS, 0.5% (v/v) deoxycholate, 1% (v/v) triton X-100 (Fisher Scientific) and 1 tablet of protease inhibitor (ThermoFisher Scientific) per 10 mL of buffer. The total protein extract was quantified using the DC Protein Assay (Bio-Rad). Twenty microgram samples were separated on 12% SDS-PAGE, transferred to nitrocellulose membrane, using the wet transfer system, and incubated with the following antibodies: mouse monoclonal antibody to V5 (horseradish peroxidase [HRP]-coupled) [1:5,000 in 5% milk TBST buffer (150 mM NaCl, 50 mM Tris-HCl pH 7.4 and 0.1% Tween 20 (Fisher Scientific)), R961-25; Invitrogen); rabbit polyclonal eGFP antibody (1:50,000 in 3% BSA PBS, ab290; Abcam); mouse monoclonal β-actin antibodies (1:60,000; Sigma, St Louis, MO); overnight at 4° C. When using the eGFP antibody, membranes were blocked 30 mins with 3% BSA PBS prior to blotting. eGFP-probed blots were washed five times, 5 min each with 0.5% Tween 20 (Fisher Scientific) in TBST buffer, and then incubated with HRP-coupled goat anti-rabbit secondary antibody (1:250,000 in 3% BSA PBS, 115-035-144; Jackson ImmunoResearch) for 2 hours at room temperature. V5-probed blots were washed five times, 5 min each with 0.1% Tween 20 in TBST buffer. Following washes, blots were developed using Immobilon Western HRP substrate (Millipore) and exposed to film. DUX4.V5, and eGFP quantification was assessed using ImageJ.

| Molecule | fold change of all mature mir-675-5p sequences compared to U6.mir-675 [1] [%] | mature mir-675-5p bands on northern blot [2] | Average inhibition efficiency (%) of DUX4 protein levels [3] |
| --- | --- | --- | --- |
| B1 | 142±45 | detectable mir-675 mature sequences | 64 ± 4 (N = 8) % |
| B2 | 153±52 | – | 56 ± 6 (N = 5) % |
| B3 | 133±38 | detectable mir-675 mature sequences | 64 ± 6 (N = 6) % |
| B4 | 114±8 | – | 64 ± 10 (N = 8) % |
